According to paper PMC10573625, “Interaction of VvDELLA2 and VvCEB1 Mediates Expression of Expansion-Related Gene during GA-Induced Enlargement of Grape Fruit”:

T1: VvCEB1 (UniProt I6QS36 1-270)
T1 sequence: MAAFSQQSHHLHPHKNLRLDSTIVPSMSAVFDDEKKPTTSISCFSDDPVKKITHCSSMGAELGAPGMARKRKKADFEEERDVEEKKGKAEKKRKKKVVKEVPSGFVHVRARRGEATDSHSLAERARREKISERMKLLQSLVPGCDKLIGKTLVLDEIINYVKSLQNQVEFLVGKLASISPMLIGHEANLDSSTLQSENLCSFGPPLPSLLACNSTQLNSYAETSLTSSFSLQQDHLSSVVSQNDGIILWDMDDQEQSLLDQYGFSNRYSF


Assays:
[1] = biological target: T1, VvCEB1; assay: EMSA; Binding buffer, salt, pH and temperature not stated; Beyotime chemiluminescent biotin-labelled nucleic acid detection kit; probes annealed at 72 C for 30 min; conditions: protein: recombinant; tags: His (pET-30a(+)); chain copies: 2; label: 5'-biotin; blunt
[2] = biological target: T1, VvCEB1; assay: competition; unlabelled competitor against biotin probe N4; band significantly weakened; Binding buffer, salt, pH and temperature not stated; Beyotime chemiluminescent biotin-labelled nucleic acid detection kit; probes annealed at 72 C for 30 min; conditions: protein: recombinant; tags: His (pET-30a(+)); chain copies: 2; blunt
[3] = biological target: T1, VvCEB1; assay: EMSA; band disappeared completely with mutated probe; Binding buffer, salt, pH and temperature not stated; Beyotime chemiluminescent biotin-labelled nucleic acid detection kit; probes annealed at 72 C for 30 min; conditions: protein: recombinant; tags: His (pET-30a(+)); chain copies: 2; blunt
[4] = biological target: T1, VvCEB1; assay: competition; unlabelled competitor against biotin probe N1; band significantly weakened; Binding buffer, salt, pH and temperature not stated; Beyotime chemiluminescent biotin-labelled nucleic acid detection kit; probes annealed at 72 C for 30 min; conditions: protein: recombinant; tags: His (pET-30a(+)); chain copies: 2; 5' overhang 1 nt as printed

Binder | binding result [1] | binding result [3] | other results
PVvEXPA11-biotin (dsDNA) DNA 1: CTACTTGCAGAGATCACATGTGAGGCTGTTGCATT DNA 2: AATGCAACAGCCTCACATGTGATCTCTGCAAGTAG | binds |  | 
PVvEXPA11 (unlabelled competitor) (dsDNA) DNA 1: CTACTTGCAGAGATCACATGTGAGGCTGTTGCATT DNA 2: AATGCAACAGCCTCACATGTGATCTCTGCAAGTAG |  |  | binding result [2]: binds
PVvEXPA11-mut (dsDNA) DNA 1: CTACTTGCAGAGATCACATTTTAGGCTGTTGCATT DNA 2: AATGCAACAGCCTAAAATGTGATCTCTGCAAGTAG |  | no binding | 
PVvEXPA8-biotin (dsDNA) DNA 1: TGGTAGTCTAACTTGAACAAAACATATGCATGTGCAG DNA 2: CTGCACATGCATATGTTTTGTTCAAGTTAGACTACCA | binds |  | 
PVvEXPA8-mut (dsDNA) DNA 1: TGGTAGTCTAACTTGAACAAAACATATGCATTTTCAG DNA 2: CTGAAAATGCATATGTTTTGTTCAAGTTAGACTACCA |  | no binding | 
PVvEXPA8 (unlabelled competitor) (dsDNA) DNA 1: TTGGTAGTCTAACTTGAACAAAACATATGCATGTGCAG DNA 2: CTGCACATGCATATGTTTTGTTCAAGTTAGACTACCA |  |  | binding result [4]: binds
